How the values were obtained:
AncSZ = experiment: phosphorylation enrichment, bacterial display (enrichment ratio); higher = better substrate or ligand; peptides without Tyr show the background
EPHB1 = EPHB1 (UniProt P54762); experiment: as above
EPHB2 = EPHB2 (UniProt P29323); experiment: as above
FGFR1 = FGFR1 (UniProt P11362); experiment: as above
FGFR3 = FGFR3 (UniProt P22607); experiment: as above
Fer (mouse) = experiment: as above
Fes = Fes (UniProt P07332); experiment: as above
Fyn = Fyn (UniProt P06241); experiment: as above
Sequence of Fyn (P06241 whole entry, looked up): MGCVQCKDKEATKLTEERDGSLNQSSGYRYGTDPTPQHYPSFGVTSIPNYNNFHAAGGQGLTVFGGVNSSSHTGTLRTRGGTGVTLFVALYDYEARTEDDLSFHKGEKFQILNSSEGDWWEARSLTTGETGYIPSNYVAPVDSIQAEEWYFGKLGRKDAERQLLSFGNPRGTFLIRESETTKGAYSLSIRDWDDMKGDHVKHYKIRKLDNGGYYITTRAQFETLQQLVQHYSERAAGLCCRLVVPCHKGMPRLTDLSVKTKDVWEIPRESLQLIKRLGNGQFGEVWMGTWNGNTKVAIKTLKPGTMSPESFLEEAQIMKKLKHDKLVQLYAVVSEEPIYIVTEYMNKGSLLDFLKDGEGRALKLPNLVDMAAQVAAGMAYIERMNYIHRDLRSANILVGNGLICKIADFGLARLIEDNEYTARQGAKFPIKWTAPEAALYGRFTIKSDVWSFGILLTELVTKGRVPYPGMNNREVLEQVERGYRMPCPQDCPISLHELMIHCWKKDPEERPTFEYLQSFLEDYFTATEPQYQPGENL

Hck = Hck (UniProt P08631); experiment: as above
Sequence of Hck (P08631 whole entry, looked up): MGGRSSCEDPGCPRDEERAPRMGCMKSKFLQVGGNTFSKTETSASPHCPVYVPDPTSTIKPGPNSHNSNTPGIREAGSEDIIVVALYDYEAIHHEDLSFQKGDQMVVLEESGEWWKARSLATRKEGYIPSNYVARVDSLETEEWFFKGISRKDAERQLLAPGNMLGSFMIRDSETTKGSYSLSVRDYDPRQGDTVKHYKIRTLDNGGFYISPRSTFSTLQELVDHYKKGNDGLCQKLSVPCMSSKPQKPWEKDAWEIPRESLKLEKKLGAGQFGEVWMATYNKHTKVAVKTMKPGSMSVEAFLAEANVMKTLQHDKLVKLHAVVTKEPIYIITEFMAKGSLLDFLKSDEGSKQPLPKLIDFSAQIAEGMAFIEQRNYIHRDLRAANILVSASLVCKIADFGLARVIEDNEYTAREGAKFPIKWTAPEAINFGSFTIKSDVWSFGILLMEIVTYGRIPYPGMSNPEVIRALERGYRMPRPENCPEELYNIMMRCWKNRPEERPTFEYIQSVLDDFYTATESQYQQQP

Jak2 = Jak2 (UniProt O60674); experiment: as above
MERTK = MERTK (UniProt Q12866); experiment: as above
Sequence of MERTK (Q12866 whole entry, looked up): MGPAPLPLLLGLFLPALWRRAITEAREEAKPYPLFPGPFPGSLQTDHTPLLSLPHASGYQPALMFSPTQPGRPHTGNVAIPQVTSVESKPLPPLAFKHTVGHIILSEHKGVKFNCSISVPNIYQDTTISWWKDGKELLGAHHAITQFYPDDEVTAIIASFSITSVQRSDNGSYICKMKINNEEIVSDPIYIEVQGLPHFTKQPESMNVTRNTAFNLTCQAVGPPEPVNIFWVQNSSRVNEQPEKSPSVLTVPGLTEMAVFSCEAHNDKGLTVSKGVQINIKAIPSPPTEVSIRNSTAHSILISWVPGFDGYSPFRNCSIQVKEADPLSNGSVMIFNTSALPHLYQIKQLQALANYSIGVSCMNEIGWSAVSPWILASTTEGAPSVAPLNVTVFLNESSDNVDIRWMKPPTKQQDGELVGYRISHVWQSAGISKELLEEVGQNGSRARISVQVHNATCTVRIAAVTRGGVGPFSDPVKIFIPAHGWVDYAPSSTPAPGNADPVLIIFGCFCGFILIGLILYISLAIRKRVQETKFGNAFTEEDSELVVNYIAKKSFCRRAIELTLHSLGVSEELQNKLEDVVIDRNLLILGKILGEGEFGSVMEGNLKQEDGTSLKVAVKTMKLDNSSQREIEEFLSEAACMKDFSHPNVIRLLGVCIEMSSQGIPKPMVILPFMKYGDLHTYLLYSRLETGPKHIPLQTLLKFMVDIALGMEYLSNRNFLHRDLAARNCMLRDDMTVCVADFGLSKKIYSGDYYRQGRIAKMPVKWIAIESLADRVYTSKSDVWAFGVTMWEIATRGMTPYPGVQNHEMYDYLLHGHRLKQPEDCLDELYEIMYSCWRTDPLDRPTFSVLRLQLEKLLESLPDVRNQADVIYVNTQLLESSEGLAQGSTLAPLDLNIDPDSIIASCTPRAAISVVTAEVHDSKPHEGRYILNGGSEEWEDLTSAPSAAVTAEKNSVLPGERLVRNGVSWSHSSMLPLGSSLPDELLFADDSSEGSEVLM

c-Abl (mouse) = experiment: as above
c-Src = experiment: as above
Grb2 SH2 = Grb2 SH2 (UniProt P62993); experiment: SH2 binding enrichment of the phosphorylated peptide, bacterial display (enrichment ratio); higher = better substrate or ligand; peptides without Tyr show the background
SHP2-C SH2 = experiment: as above
c-Src SH2 = experiment: as above
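For SH2 binding enrichment of the phosphorylated peptide, bacterial display in this document: peptide library displayed on the E. coli surface as eCPX fusions, selected cells deep-sequenced, score is each peptide's frequency after selection divided by its frequency in the input.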
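For phosphorylation enrichment, bacterial display in this document: 11-residue human phosphosite peptides and single-mutation variants displayed on the E. coli surface, counted by deep sequencing, each peptide's frequency after selection divided by its frequency in the unselected input library; frequency after pTyr selection over input frequency; kinase dosed for 20-30% of maximal phosphorylation in three min.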

Sequence of EPHB1 (P54762 whole entry, looked up): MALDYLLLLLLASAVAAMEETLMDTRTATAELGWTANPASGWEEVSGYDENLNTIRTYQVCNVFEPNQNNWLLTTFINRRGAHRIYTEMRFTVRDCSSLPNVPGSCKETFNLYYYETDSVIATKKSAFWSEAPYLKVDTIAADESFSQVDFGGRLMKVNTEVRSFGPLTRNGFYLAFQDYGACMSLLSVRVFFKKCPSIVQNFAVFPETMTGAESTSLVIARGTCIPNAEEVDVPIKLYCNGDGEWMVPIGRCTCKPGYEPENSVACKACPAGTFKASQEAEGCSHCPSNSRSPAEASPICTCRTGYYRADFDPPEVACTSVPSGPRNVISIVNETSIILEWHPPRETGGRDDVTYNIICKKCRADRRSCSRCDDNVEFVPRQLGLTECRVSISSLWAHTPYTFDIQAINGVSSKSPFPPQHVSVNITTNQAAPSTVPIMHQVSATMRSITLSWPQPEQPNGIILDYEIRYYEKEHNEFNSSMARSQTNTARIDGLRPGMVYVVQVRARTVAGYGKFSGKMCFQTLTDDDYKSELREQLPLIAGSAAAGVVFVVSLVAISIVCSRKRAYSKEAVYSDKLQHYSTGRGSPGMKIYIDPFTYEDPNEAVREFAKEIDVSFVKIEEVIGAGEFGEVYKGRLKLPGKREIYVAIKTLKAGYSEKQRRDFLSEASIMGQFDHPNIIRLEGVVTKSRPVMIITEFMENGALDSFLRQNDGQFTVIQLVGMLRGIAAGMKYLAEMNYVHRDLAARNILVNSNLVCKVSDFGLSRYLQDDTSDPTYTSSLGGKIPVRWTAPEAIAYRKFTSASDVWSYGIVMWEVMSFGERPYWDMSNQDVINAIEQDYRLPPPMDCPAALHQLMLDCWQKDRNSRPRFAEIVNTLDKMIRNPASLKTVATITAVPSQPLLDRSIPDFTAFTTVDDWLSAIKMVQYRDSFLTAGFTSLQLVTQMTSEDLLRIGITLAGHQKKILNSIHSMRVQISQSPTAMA
Sequence of EPHB2 (P29323 whole entry, looked up): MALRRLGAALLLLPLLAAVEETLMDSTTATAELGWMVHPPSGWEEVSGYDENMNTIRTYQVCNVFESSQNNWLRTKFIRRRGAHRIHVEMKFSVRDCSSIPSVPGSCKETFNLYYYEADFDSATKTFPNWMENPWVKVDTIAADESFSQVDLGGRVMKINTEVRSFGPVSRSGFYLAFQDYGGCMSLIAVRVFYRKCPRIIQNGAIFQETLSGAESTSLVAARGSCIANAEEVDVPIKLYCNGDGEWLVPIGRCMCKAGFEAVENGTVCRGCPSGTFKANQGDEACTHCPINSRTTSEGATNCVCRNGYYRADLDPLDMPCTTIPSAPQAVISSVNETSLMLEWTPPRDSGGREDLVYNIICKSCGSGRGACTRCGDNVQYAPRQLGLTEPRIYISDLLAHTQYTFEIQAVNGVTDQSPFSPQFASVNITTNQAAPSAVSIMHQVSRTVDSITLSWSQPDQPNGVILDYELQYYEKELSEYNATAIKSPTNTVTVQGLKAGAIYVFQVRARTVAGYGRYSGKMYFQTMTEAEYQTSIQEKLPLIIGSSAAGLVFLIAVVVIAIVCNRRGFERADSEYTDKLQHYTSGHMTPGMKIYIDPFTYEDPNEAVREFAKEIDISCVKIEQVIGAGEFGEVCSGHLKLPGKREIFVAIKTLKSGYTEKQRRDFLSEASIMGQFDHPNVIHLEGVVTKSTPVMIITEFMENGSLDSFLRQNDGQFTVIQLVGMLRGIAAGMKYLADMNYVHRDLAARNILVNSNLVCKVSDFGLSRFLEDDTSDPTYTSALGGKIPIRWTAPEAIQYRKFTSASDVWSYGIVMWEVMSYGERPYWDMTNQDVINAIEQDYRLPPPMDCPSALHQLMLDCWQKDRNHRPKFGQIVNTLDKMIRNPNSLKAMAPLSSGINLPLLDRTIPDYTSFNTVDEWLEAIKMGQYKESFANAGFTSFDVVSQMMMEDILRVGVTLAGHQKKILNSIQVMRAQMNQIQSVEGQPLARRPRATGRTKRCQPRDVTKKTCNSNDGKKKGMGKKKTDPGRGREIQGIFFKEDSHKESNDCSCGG
Sequence of FGFR3 (P22607 whole entry, looked up): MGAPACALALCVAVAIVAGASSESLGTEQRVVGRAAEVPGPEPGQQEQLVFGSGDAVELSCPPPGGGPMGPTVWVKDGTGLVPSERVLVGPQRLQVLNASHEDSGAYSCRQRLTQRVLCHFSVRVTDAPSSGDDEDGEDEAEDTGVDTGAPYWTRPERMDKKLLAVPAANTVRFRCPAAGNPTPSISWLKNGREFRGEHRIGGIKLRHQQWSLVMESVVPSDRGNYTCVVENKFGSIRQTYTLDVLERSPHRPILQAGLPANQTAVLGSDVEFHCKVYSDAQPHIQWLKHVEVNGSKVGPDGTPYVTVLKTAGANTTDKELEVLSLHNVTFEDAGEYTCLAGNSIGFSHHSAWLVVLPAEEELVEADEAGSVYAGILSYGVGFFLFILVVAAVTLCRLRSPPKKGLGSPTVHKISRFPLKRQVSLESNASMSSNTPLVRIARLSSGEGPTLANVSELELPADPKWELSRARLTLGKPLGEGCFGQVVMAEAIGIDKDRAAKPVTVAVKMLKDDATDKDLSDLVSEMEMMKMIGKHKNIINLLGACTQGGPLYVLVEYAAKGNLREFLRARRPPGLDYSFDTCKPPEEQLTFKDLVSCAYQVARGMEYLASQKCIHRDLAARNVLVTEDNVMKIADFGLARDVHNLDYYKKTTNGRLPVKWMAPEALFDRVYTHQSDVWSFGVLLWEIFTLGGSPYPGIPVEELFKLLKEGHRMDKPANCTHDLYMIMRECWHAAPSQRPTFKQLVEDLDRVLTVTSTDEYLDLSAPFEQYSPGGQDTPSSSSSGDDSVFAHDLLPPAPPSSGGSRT

SH2 binding enrichment (Grb2 SH2) | SH2 binding enrichment (SHP2-C SH2) | SH2 binding enrichment (c-Src SH2) | Sequence | phosphorylation enrichment (AncSZ) | phosphorylation enrichment (EPHB1) | phosphorylation enrichment (EPHB2) | phosphorylation enrichment (FGFR1) | phosphorylation enrichment (FGFR3) | phosphorylation enrichment (Fer (mouse)) | phosphorylation enrichment (Fes) | phosphorylation enrichment (Fyn) | phosphorylation enrichment (Hck) | phosphorylation enrichment (Jak2) | phosphorylation enrichment (MERTK) | phosphorylation enrichment (c-Abl (mouse)) | phosphorylation enrichment (c-Src)
0.852 | 1.11 | 1.14 | NVTGHYISPFH [PPA2_Y59] | 0.552 | 0.423 | 0.493 | 0.459 | 0.422 | 0.325 | 0.542 | 0.448 | 0.486 | 0.492 | 0.563 | 0.92 | 0.362
0.811 | 0.563 | 0.529 | MTRDIYRASFF [ALK_Y1278_A1274T_YF] | 0.657 | 0.519 | 0.462 | 0.572 | 0.677 | 0.386 | 0.73 | 0.587 | 0.89 | 0.621 | 0.464 | 4.15 | 0.592
0.921 | 0.911 | 0.542 | DPLLTYRFPPK [LMNA_Y481] | 0.597 | 0.422 | 0.349 | 0.452 | 0.446 | 0.292 | 0.513 | 0.502 | 0.43 | 0.515 | 0.434 | 0.578 | 0.635
0.914 | 0.85 | 0.583 | FAREGYSALPQ [SARS2_Y52_YF] | 0.603 | 0.426 | 0.466 | 0.471 | 0.446 | 0.441 | 0.666 | 0.421 | 0.524 | 0.652 | 0.502 | 0.564 | 0.43
0.692 | 0.739 | 0.532 | GPTLSYGRDGR [MATR3_Y158] | 0.435 | 0.276 | 0.347 | 0.363 | 0.377 | 0.306 | 0.526 | 0.33 | 0.379 | 0.449 | 0.488 | 0.369 | 0.332
1.08 | 0.792 | 0.716 | EMFNPCFGLFE [NEDD4L_Y679_Y679C_YF] | 1.27 | 0.71 | 0.687 | 0.667 | 0.798 | 0.811 | 1.45 | 0.543 | 0.562 | 1.41 | 0.554 | 1.29 | 0.725
1.51 | 0.789 | 0.607 | EFEGLYQEGGG [TMEM159_Y159] | 0.974 | 0.576 | 0.579 | 0.5 | 0.612 | 0.585 | 0.939 | 0.675 | 0.842 | 0.781 | 0.456 | 0.551 | 0.658
0.889 | 0.728 | 0.456 | TGEKLYQRKEF [ZNF283_Y627] | 0.813 | 0.62 | 0.379 | 0.539 | 0.489 | 0.437 | 0.847 | 0.526 | 0.543 | 0.59 | 0.477 | 0.507 | 0.447
0.771 | 0.552 | 0.392 | ISGGGYRARPA [FGB_Y71] | 0.485 | 0.402 | 0.308 | 0.345 | 0.404 | 0.312 | 0.665 | 0.416 | 0.404 | 0.603 | 0.333 | 0.515 | 0.408
0.753 | 0.605 | 0.79 | MSYDRYMAICH [OR2A5_Y123] | 0.909 | 0.846 | 0.704 | 0.509 | 0.672 | 0.498 | 1.03 | 0.511 | 0.646 | 0.895 | 0.484 | 0.695 | 0.485
0.94 | 0.629 | 0.68 | YGSGNYNDFGN [HNRNPA2B1_Y300] | 1.03 | 3 | 1.01 | 0.719 | 0.654 | 0.424 | 1.08 | 0.668 | 0.632 | 0.966 | 0.501 | 0.923 | 0.643
0.705 | 0.62 | 0.363 | TGNGFYFRVFS [MYBPC3_Y1136_I1131T_YF] | 1.1 | 0.65 | 0.517 | 0.433 | 0.763 | 0.543 | 1.33 | 0.393 | 0.456 | 1.32 | 0.36 | 0.929 | 0.374
0.905 | 0.719 | 0.45 | DKITQYVEEVR [STX2_Y49_K54R] | 0.999 | 0.739 | 0.551 | 0.477 | 0.609 | 0.486 | 1.08 | 0.427 | 0.517 | 0.872 | 0.411 | 0.605 | 0.417
0.746 | 0.692 | 0.867 | SLDLSYYHTSS [EMD_Y181_P183H] | 1.05 | 0.765 | 0.58 | 1.53 | 1.19 | 0.453 | 0.951 | 0.543 | 0.554 | 1.71 | 0.578 | 0.603 | 0.524
1.43 | 1.14 | 1.15 | QGIPWYHSQSP [FOXF1_Y331_R330W] | 0.645 | 0.435 | 0.503 | 0.571 | 0.441 | 0.533 | 0.642 | 0.46 | 0.547 | 0.977 | 0.517 | 0.633 | 0.601
1.28 | 1.16 | 1.06 | VLALWYFFLTH [ZDHHC23_Y127_YF] | 1.42 | 0.963 | 0.676 | 2.08 | 1.76 | 0.644 | 1.76 | 0.614 | 0.682 | 2.27 | 0.882 | 1.01 | 0.602
0.965 | 0.751 | 0.774 | KIKLNYTLPQD [NRAP_Y523_N519I] | 0.965 | 0.49 | 0.447 | 0.48 | 0.623 | 0.513 | 0.88 | 0.454 | 0.462 | 0.721 | 0.53 | 0.531 | 0.454

SH2 binding enrichment (Grb2 SH2) | SH2 binding enrichment (SHP2-C SH2) | SH2 binding enrichment (c-Src SH2) | Sequence | phosphorylation enrichment (AncSZ) | phosphorylation enrichment (EPHB1) | phosphorylation enrichment (EPHB2) | phosphorylation enrichment (FGFR1) | phosphorylation enrichment (FGFR3) | phosphorylation enrichment (Fer (mouse)) | phosphorylation enrichment (Fes) | phosphorylation enrichment (Fyn) | phosphorylation enrichment (Hck) | phosphorylation enrichment (Jak2) | phosphorylation enrichment (MERTK) | phosphorylation enrichment (c-Abl (mouse)) | phosphorylation enrichment (c-Src)
0.953 | 0.688 | 0.63 | AGQKDYDRLRP [RAC3_Y64_E62K] | 0.662 | 0.501 | 0.543 | 0.462 | 0.572 | 0.787 | 0.761 | 0.52 | 0.47 | 0.546 | 0.358 | 0.627 | 0.36
0.903 | 0.946 | 0.584 | AACQHYGVHTC [NR4A2_Y275_R278H] | 0.624 | 0.445 | 0.471 | 0.413 | 0.585 | 0.347 | 0.63 | 0.433 | 0.443 | 0.432 | 0.406 | 0.534 | 0.345
0.78 | 0.683 | 0.538 | SVTCTYSPVLN [TP53_Y126_A129V] | 1.37 | 0.795 | 0.692 | 0.558 | 0.831 | 1.02 | 1.6 | 0.613 | 0.876 | 1.21 | 0.435 | 0.804 | 0.815
0.851 | 0.846 | 0.575 | HRAVEYLLTGI [RAD23A_Y197] | 0.991 | 0.846 | 0.636 | 0.8 | 0.817 | 0.488 | 1.02 | 0.739 | 0.7 | 0.736 | 0.549 | 0.709 | 0.458
0.796 | 0.522 | 0.45 | ETKAFYPEEIS [HSPA1A_Y115] | 1.08 | 0.52 | 0.747 | 0.521 | 0.687 | 0.537 | 0.919 | 0.414 | 0.506 | 1.16 | 0.408 | 0.584 | 0.511
1.3 | 1.19 | 2.76 | KGIQLYDTPFE [SHB_Y297_YF] | 1.13 | 8.6 | 12.9 | 0.511 | 0.584 | 2.8 | 0.911 | 0.712 | 1.73 | 0.843 | 4.56 | 0.965 | 0.729
1.04 | 0.821 | 0.97 | CSRHFYQLTKL [AR_Y858_R856H] | 1.06 | 0.501 | 0.576 | 0.705 | 0.662 | 0.615 | 1.17 | 0.444 | 0.464 | 0.969 | 0.432 | 0.763 | 0.422
1.35 | 1.86 | 1.52 | MFKPMYALFRT [HUWE1_Y4078_N4075K] | 0.921 | 0.963 | 0.621 | 0.606 | 0.698 | 0.815 | 0.982 | 0.779 | 0.872 | 0.704 | 2.87 | 1.85 | 1.75
4.23 | 0.627 | 1.29 | LFSNAYLNDLA [ALDH1A1_Y119_YF] | 1.14 | 0.794 | 0.723 | 0.986 | 1.25 | 0.688 | 1.58 | 1.12 | 1 | 1.11 | 0.807 | 1.14 | 1.15
0.705 | 0.941 | 0.474 | ELANYYKLHHI [AK7_Y391] | 0.647 | 13.7 | 12.3 | 6.91 | 4.77 | 0.629 | 0.591 | 0.566 | 0.743 | 6.75 | 3.36 | 0.565 | 0.762
0.956 | 0.609 | 0.503 | EAGKVYLKAPM [CBFB_Y96] | 0.754 | 0.443 | 0.524 | 0.433 | 0.609 | 0.411 | 0.939 | 0.492 | 0.496 | 0.669 | 0.602 | 0.504 | 0.434
0.76 | 0.697 | 0.65 | GKAFIYASHIV [ZNF573_Y229] | 0.802 | 0.557 | 0.42 | 0.427 | 0.602 | 1.16 | 1 | 0.666 | 0.604 | 0.869 | 0.408 | 0.996 | 1.21
1.02 | 0.829 | 0.606 | NHQFDYTFDWT [CSNK1A1_Y294_YF] | 1.23 | 0.696 | 0.721 | 3.58 | 2.22 | 0.459 | 1.12 | 0.584 | 0.543 | 1.08 | 0.565 | 0.995 | 1.22
1.01 | 0.636 | 0.654 | INSLKYAYNVS [EIF2B5_Y583_I587V] | 0.642 | 0.402 | 0.354 | 0.522 | 0.525 | 0.419 | 1.01 | 0.633 | 0.424 | 0.571 | 0.443 | 0.643 | 0.6
0.783 | 1.04 | 0.962 | TENAGYYFQVS | 1.39 | 0.78 | 0.713 | 2 | 1.76 | 0.604 | 1.52 | 0.456 | 0.563 | 1.99 | 1.29 | 0.983 | 0.509
0.897 | 0.672 | 0.545 | EWKQKYEESQS [MYH6_Y1462] | 1.02 | 0.525 | 0.616 | 0.499 | 0.65 | 0.44 | 1.08 | 0.49 | 0.528 | 1.04 | 0.357 | 0.706 | 0.395
